# Non-standard residues stand in square brackets, D forms with d. No end group written: not given here. *: point of attachment. X1 = 1‑(3,5-dichlorophenyl)‑5‑methyl‑1H‑1,2,4‑triazole‑3‑carbonyl, Cc1nc(C(=O)*)nn1-c1cc(Cl)cc(Cl)c1; Pyrazole N‑cap (R1 OCH3, R2 H, R3 H, R4 CH3, W N, X N, Y C, Z C) = not defined here; Pyrazole N‑cap (R1 Cl, R2 H, R3 Cl, R4 CH3, W N, X N, Y C, Z C) = not defined here; Pyrazole N‑cap (R1 Cl, R2 H, R3 H, R4 CH3, W N, X N, Y C, Z C) = not defined here; Pyrazole N‑cap (R1 F, R2 H, R3 H, R4 CH3, W N, X N, Y C, Z C) = not defined here; Pyrazole N‑cap (R1 H, R2 H, R3 H, R4 CH3, W N, X N, Y C, Z C) = not defined here; benzoic acid Scaffold III (R1 H, R2 CHEM-US-00025 C6H13NO) = not defined here; benzoic acid Scaffold III (R1 H, R2 CHEM-US-00026 C5H12N2) = not defined here; 3‑phenoxybenzylamide = c1ccc(Oc2cccc(CN*)c2)cc1; Ala(2-furyl) = N[C@@H](Cc1ccco1)C(=O)O; Cha = N[C@@H](CC1CCCCC1)C(=O)O; β3hL = CC(C)C[C@H](N)CC(=O)O
# B1: HAKRRLIR6 (peptide)
# peptide: HAKRRLI[Cha]-NH2
# modifications: not fully specified
# notes: also called HAKRRLIX6; HAKRRLI{CHA}
# B2: SAKRRL3TA G-OH (peptide)
# peptide: SAKRRLXG
# HELM: PEPTIDE1{S.A.K.R.R.L.[O=C([C@H](Cc1ccsc1)N[*:1])[*:2]].G}$$$$V2.0; N-terminus assumed
# SMILES: CC(C)C[C@H](NC(=O)[C@H](CCCNC(=N)N)NC(=O)[C@H](CCCNC(=N)N)NC(=O)[C@H](CCCCN)NC(=O)[C@H](C)NC(=O)[C@@H](N)CO)C(=O)N[C@@H](Cc1ccsc1)C(=O)NCC(=O)O
# notes: C-terminal free acid (-OH); also called SCCP 5814
# B3: SAKRR{bLeu}3TAG-OH (peptide)
# peptide: SAKRRLAG
# HELM: PEPTIDE1{S.A.K.R.R.[CC(C)C[C@@H](CC(=O)[*:2])N[*:1]].[O=C([C@H](Cc1ccsc1)N[*:1])[*:2]].G}$$$$V2.0; N-terminus assumed
# SMILES: CC(C)C[C@@H](CC(=O)N[C@@H](Cc1ccsc1)C(=O)NCC(=O)O)NC(=O)[C@H](CCCNC(=N)N)NC(=O)[C@H](CCCNC(=N)N)NC(=O)[C@H](CCCCN)NC(=O)[C@H](C)NC(=O)[C@@H](N)CO
# notes: C-terminal free acid (-OH); also called SCCP 5813
# B4: R(dimethyllys)LIF (peptide)
# peptide: RKLIF
# modifications: dimethyllysine at position 2 (lysine with the epsilon amino group methylated)
# notes: also called SCCP 5918
# B5: CitRLIF (peptide)
# peptide: XRLIF
# modifications: Cit at position 1 = citrulline; C-terminal amide
# notes: also called SCCP 5812
# B6: RRLNpfF (peptide)
# peptide: RRLNF
# modifications: pfF at position 5 = p-fluorophenylalanine; C-terminal amide
# notes: also called SCCP 540
# B7: RCitLIF (peptide)
# peptide: RXLIF
# modifications: Cit at position 2 = citrulline; C-terminal amide
# notes: also called SCCP 5831
# B8: 1-(3,5-dichlorophenyl)-5-methyl-1H-1,2,4-triazole-3-carbonyl-RLIF (peptide)
# peptide: X1-RLIF
# notes: also called SCCP 5773; 3,5-dichlorophenyl triazole
# B9: SCCP 5774 (Triazole N-cap ligated to RLIF) (peptide)
# peptide: {Triazole N‑cap, 4‑chlorophenyl triazole (R1 H, R2 Cl, R3 H, R4 CH3, W N, X N, Y N, Z C)}-RLIF
# modifications: also: cap structure given only by scaffold parameters
# notes: also called 4-chlorophenyl triazole; 4-chloro phenyl triazole
# B10: HAKTRLIF (peptide)
# peptide: HAKTRLIF-NH2
# B11: Arg-Arg-β-homoleucyl-3-phenoxybenzylamid (peptide)
# peptide: Arg-Arg-[β3hL]-{3‑phenoxybenzylamide}
# B12: SAKRNLFGM (peptide)
# peptide: SAKRNLFGM-NH2
# B13: SAKRALFGM (peptide)
# peptide: SAKRALFGM-NH2
# B14: PAKRRLFG (peptide)
# peptide: PAKRRLFG-NH2
# B15: HAKRRLIX1 (peptide)
# peptide: HAKRRLI[Ala(2-furyl)]-NH2
# B16: HAKRRLIX2 (peptide)
# peptide: HAKRRLI[2‑thienylalanine]-NH2
# B17: HAKRRLIX3 (peptide)
# peptide: HAKRRLIA
# HELM: PEPTIDE1{H.A.K.R.R.L.I.[O=C([C@H](Cc1ccsc1)N[*:1])[*:2]].[am]}$$$$V2.0; N-terminus assumed
# SMILES: CC[C@H](C)[C@H](NC(=O)[C@H](CC(C)C)NC(=O)[C@H](CCCNC(=N)N)NC(=O)[C@H](CCCNC(=N)N)NC(=O)[C@H](CCCCN)NC(=O)[C@H](C)NC(=O)[C@@H](N)Cc1c[nH]cn1)C(=O)N[C@@H](Cc1ccsc1)C(N)=O
# B18: HAKRRLIX4 (peptide)
# peptide: HAKRRLIA
# HELM: PEPTIDE1{H.A.K.R.R.L.I.[O=C([C@H](CC1CCC1)N[*:1])[*:2]].[am]}$$$$V2.0; N-terminus assumed
# SMILES: CC[C@H](C)[C@H](NC(=O)[C@H](CC(C)C)NC(=O)[C@H](CCCNC(=N)N)NC(=O)[C@H](CCCNC(=N)N)NC(=O)[C@H](CCCCN)NC(=O)[C@H](C)NC(=O)[C@@H](N)Cc1c[nH]cn1)C(=O)N[C@@H](CC1CCC1)C(N)=O
# B19: HAKRRLIX5 (peptide)
# peptide: HAKRRLIA
# HELM: PEPTIDE1{H.A.K.R.R.L.I.[O=C([C@H](CC1CCCC1)N[*:1])[*:2]].[am]}$$$$V2.0; N-terminus assumed
# SMILES: CC[C@H](C)[C@H](NC(=O)[C@H](CC(C)C)NC(=O)[C@H](CCCNC(=N)N)NC(=O)[C@H](CCCNC(=N)N)NC(=O)[C@H](CCCCN)NC(=O)[C@H](C)NC(=O)[C@@H](N)Cc1c[nH]cn1)C(=O)N[C@@H](CC1CCCC1)C(N)=O
# B20: HAKRRLIX7 (peptide)
# peptide: HAKRRLIA
# HELM: PEPTIDE1{H.A.K.R.R.L.I.[O=C([C@H](Cc1cccnc1)N[*:1])[*:2]].[am]}$$$$V2.0; N-terminus assumed
# SMILES: CC[C@H](C)[C@H](NC(=O)[C@H](CC(C)C)NC(=O)[C@H](CCCNC(=N)N)NC(=O)[C@H](CCCNC(=N)N)NC(=O)[C@H](CCCCN)NC(=O)[C@H](C)NC(=O)[C@@H](N)Cc1c[nH]cn1)C(=O)N[C@@H](Cc1cccnc1)C(N)=O
# B21: SCCP 5843 (Triazole N-cap ligated to RLIF) (peptide)
# peptide: {Triazole N‑cap (R1 H, R2 H, R3 H, R4 H, W N, X N, Y N, Z C)}-RLIF
# modifications: also: cap structure given only by scaffold parameters
# B22: SCCP 5763 (Pyrazole N-cap ligated to RLIF) (peptide)
# peptide: {Pyrazole N‑cap (R1 Cl, R2 H, R3 Cl, R4 CH3, W N, X N, Y C, Z C)}-RLIF
# modifications: reading uncertain; also: cap structure given only by scaffold parameters
# B23: SCCP 5764 (Pyrazole N-cap ligated to RLIF) (peptide)
# peptide: {Pyrazole N‑cap (R1 Cl, R2 H, R3 H, R4 CH3, W N, X N, Y C, Z C)}-RLIF
# modifications: reading uncertain; also: cap structure given only by scaffold parameters
# B24: SCCP 5771 (Pyrazole N-cap ligated to RLIF) (peptide)
# peptide: {Pyrazole N‑cap (R1 F, R2 H, R3 H, R4 CH3, W N, X N, Y C, Z C)}-RLIF
# modifications: reading uncertain; also: cap structure given only by scaffold parameters
# B25: SCCP 5766 (Pyrazole N-cap ligated to RLIF) (peptide)
# peptide: {Pyrazole N‑cap (R1 OCH3, R2 H, R3 H, R4 CH3, W N, X N, Y C, Z C)}-RLIF
# modifications: reading uncertain; also: cap structure given only by scaffold parameters
# B26: SCCP 5852 (Imidazole N-cap ligated to RLIF) (peptide)
# peptide: {2‑(3-fluorophenyl)‑1H‑imidazole‑4‑carbonyl}-RLIF
# notes: also called 2-(3-fluorophenyl)-1H-imidazole-4-carboxamide
# B27: SCCP 5762 (Pyrazole N-cap ligated to RLIF) (peptide)
# peptide: {Pyrazole N‑cap (R1 H, R2 H, R3 H, R4 CH3, W N, X N, Y C, Z C)}-RLIF
# modifications: reading uncertain; also: cap structure given only by scaffold parameters
# B28: SCCP 5851 (benzoic acid N-cap-RLIF) (peptide)
# peptide: {benzoic acid Scaffold III (R1 H, R2 CHEM-US-00025 C6H13NO)}-RLIF
# modifications: not fully specified (C-terminus); reading uncertain
# B29: SCCP 5850 (benzoic acid N-cap-RLIF) (peptide)
# peptide: {benzoic acid Scaffold III (R1 H, R2 CHEM-US-00026 C5H12N2)}-RLIF
# modifications: reading uncertain; also: cap structure given only by scaffold parameters
# Target: T1, CDK2/cyclin A (as used in the binding assay) (UniProt P24941 1-298; P20248 1-432)
# Test: not given
row,Binder,IC50 [µM]
1,B1,0.25
2,B2,0.43
3,B3,0.31
4,B4,5.4

# Target: T2, CDK4/cyclin D1 (as used in the binding assay) (UniProt P11802 1-303; P24385 1-295)
# T2 construct: kept apart from the GST-tagged kinase-assay complex m2; also called CDK4/D1
# T2 sequence (P11802 whole entry, chain 1 of 2): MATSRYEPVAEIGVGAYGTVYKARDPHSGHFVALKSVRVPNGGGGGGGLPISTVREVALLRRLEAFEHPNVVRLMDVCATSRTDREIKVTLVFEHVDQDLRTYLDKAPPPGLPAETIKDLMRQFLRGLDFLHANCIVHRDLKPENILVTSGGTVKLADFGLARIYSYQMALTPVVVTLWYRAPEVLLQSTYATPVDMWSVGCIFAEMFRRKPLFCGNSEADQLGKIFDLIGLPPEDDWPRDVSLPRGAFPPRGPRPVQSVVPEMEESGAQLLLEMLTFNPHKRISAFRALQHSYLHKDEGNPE
# T2 sequence (P24385 whole entry, chain 2 of 2): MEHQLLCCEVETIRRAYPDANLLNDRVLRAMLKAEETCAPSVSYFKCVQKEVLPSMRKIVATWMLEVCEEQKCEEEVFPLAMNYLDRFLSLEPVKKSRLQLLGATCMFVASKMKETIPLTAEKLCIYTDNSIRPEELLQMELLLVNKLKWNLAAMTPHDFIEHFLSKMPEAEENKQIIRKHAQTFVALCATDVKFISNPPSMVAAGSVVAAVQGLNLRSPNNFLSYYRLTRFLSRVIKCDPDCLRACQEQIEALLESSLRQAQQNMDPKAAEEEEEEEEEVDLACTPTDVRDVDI
# Test: not given
row,Binder,IC50 [µM]
1,B1,0.26
2,B5,72.3
3,B6,8
4,B4,72.2
5,B7,46.5

# Target: T1, CDK2/cyclin A (as used in the binding …)
# Test: binding assay
row,Binder,IC50 [µM]
1,B8,12
2,B9,25

# Target: T3, CDK2/Cyclin A2, full-length recombinant, N-terminal GST tag on both proteins (UniProt P24941 1-298; P20248 1-432)
# Test: cell-based or functional assay
Binder,"IC50, kinase assay [µM]",Potency ratio vs native HAKRRLIF [ratio]
B10,50,38.5
B11,> 100,

# Target: T4, CDK4/Cyclin D1, full-length recombinant, N-terminal GST tag on both proteins (UniProt P11802 2-303; P24385 1-295)
# T4 sequence (P11802 2-303, chain 1 of 2): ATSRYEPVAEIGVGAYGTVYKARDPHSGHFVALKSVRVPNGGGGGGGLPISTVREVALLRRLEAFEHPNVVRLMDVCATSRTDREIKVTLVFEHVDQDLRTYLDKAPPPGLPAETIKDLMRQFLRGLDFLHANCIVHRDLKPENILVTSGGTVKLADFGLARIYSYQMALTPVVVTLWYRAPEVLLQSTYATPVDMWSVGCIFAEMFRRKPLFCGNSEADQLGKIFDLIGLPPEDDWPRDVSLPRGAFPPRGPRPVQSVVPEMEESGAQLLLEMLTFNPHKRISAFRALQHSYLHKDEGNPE
# T4 sequence (P24385 whole entry, chain 2 of 2): as the sequence (P24385 whole entry, chain 2 of 2) above
# Test: cell-based or functional assay
Binder,"IC50, kinase assay [µM]",Potency ratio vs native HAKRRLIF [ratio],Potency ratio [ratio]
B10,25,16.7,
B5,179,,
B11,60,,20.7
B12,146,,
B13,68,,
B14,6.7,,

# Target: T3, CDK2/Cyclin A2, full-length …
# Test: cell-based or functional assay
# Remark: another data set of the same source
row,Binder,"IC50, kinase assay [µM]"
1,B15,6.1
2,B16,3.6
3,B17,25
4,B18,25
5,B19,20
6,B1,58
7,B20,29

# Target: CDK2/E (UniProt P24941 1-298; P24864 1-410)
# Test: cell-based or functional assay
row,Binder,"IC50, kinase assay [µM]"
1,B15,1.3

# Target: T4, CDK4/Cyclin D1, full-length …
# Test: cell-based or functional assay
# Remark: another data set of the same source
row,Binder,"IC50, kinase assay [µM]"
1,B19,90

# Target: T1, CDK2/cyclin A (as used in the binding …)
# Test: FP binding assay
row,Binder,IC50 [µM]
1,B21,16.2
2,B8,4
3,B9,11.5
4,B22,21.8
5,B23,11.9
6,B24,29.6
7,B25,64.1
8,B26,34.3

# Target: T2, CDK4/cyclin D1 (as used in the binding …)
# Test: FP binding assay
row,Binder,IC50 [µM]
1,B21,48.7
2,B8,27
3,B9,11.3
4,B27,53.8
5,B23,45
6,B24,69.6
7,B26,67

# Target: T2, CDK4/cyclin D1 (as used in the binding …)
# Test: not given
# Remark: another data set of the same source
row,Binder,fold enhancement of activity vs unsubstituted benzoic acid [fold]
1,B28,26
2,B29,9

# From patent publication US20150011730A1 (UNIVERSITY OF SOUTH CAROLINA, published 2015)
